This note sets out measurements from patent US20220227882A1 (TRUSTEES OF TUFTS COLLEGE, published 2022).

Test [1] deals with T1, Recombinant human ADAM8 (rHuADAM8) ectodomain protein (aa 17-497), ACRO Biosystems AD8-H5223 (human, UniProt P78325 17-497).
T1 construct: Bought protein made in HEK293 cells; The protein clips off its own prodomain (aa 17-191); also called rhADAM8; immunogen
T1 sequence: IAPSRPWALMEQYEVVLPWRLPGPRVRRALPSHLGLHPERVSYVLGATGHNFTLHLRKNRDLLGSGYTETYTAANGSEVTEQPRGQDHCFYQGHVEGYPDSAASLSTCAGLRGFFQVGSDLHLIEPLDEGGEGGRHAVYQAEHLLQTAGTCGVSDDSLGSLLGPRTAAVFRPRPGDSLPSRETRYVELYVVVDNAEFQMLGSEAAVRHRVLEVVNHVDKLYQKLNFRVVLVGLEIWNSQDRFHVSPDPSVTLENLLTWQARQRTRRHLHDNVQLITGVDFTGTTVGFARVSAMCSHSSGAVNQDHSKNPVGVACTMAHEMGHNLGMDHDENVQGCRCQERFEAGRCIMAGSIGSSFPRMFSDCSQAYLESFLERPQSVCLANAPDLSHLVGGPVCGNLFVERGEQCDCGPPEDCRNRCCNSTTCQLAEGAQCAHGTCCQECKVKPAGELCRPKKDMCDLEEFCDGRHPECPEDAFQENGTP
Put plainly: ELISA, coated recombinant ADAM8.

The target in test [2] is T2, Recombinant human ADAM12 (Acro Biosystems, AD2-H5228) (human, UniProt O43184 208-708).
T2 sequence (looked up): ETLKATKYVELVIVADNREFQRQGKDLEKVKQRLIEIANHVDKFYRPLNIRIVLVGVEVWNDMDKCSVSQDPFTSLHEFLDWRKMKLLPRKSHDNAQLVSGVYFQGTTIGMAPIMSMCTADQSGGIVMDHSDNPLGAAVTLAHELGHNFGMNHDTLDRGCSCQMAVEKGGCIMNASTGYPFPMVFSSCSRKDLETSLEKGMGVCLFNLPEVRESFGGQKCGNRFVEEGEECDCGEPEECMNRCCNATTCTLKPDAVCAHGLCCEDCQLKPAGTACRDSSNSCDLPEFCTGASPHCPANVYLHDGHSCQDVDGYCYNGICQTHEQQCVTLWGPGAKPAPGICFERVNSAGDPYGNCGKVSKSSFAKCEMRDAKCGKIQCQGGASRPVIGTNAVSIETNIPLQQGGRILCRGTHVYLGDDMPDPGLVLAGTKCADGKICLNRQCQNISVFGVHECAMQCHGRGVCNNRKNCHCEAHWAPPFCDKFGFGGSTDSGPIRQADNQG
Put plainly: ELISA, coated recombinant ADAM12.

For test [3], the target named is T3, Full-length human ADAM8 on cells (HEK293-ADAM8 stable or transfected cells); also endogenous ADAM8 of breast … (human, UniProt P78325 17-824).
T3 construct: On cells the proform, the active form and the remnant form can all be present; also called native ADAM8; HEK293-A8
T3 sequence: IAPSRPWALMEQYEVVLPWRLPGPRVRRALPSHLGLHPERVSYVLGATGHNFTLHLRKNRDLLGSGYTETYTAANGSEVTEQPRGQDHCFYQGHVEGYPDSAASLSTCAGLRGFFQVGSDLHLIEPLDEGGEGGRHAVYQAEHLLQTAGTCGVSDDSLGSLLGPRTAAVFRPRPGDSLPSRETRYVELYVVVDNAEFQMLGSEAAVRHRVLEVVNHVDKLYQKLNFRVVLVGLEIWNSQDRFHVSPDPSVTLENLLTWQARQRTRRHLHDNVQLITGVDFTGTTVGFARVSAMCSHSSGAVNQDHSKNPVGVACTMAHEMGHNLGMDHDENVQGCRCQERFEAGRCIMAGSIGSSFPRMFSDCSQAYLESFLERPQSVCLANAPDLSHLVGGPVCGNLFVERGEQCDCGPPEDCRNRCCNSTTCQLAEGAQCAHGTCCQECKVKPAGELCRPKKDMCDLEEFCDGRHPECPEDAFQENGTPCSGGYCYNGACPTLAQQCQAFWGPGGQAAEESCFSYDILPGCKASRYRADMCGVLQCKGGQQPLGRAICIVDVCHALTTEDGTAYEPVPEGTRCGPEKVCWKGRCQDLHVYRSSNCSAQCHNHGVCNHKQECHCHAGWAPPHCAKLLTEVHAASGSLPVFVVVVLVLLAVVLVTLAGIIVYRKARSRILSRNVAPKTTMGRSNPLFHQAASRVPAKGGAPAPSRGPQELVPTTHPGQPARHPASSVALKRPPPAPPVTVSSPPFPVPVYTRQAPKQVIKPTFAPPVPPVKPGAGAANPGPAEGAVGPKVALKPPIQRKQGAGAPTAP
The test can be described thus: FACS, HEK293-ADAM8 cells, antibody 1 µg/ml.

Test [4] concerns the target T3, Full-length human ADAM8 on cells …. The test can be described thus: FACS, HEK293-ADAM8 cells, antibody 10 µg/ml.
The target of test [5] is T1, Recombinant human ADAM8 (rHuADAM8) …. Put plainly: Biacore SPR, ADP captured by anti-mouse Fc, rHuADAM8 as analyte. The protocol:
For Biacore assays, each ADP was used as the ligand in a multiple cycle kinetics method performed on a Biacore™ T200 surface plasmon resonance system (GE Healthcare Life Sciences) machine. ADP proteins were captured using anti-mouse Fc IgG attached to a dextran matrix, and rHuADAM8 (Acro Biosystems, AD8-H5223) added as the analyte at concentrations ranging from 3.75 nM to 200 nM. HBS-EP+ (10 mM HEPES, 0.15 M NaCl, 3 mM EDTA, 0.05% Surfactant P20) running buffer was passed at a flow rate of 30 μl/min and antigen injected at 30 μl/min. The association and dissociation phases were carried out for 180 s and 600 s, respectively. Surface regeneration was performed for 30 s at 30 μl/min of Glycine pH 1.5. Values for association rate constant (kₐ), dissociation rate constant (kd) and equilibrium dissociation constant (KD) were calculated through the Biacore™ T200 Software.

B1: ADP13 (antibody, IgG1, V domains shown)
VH: EVQLQQSGPEMVKPGTSVKISCKASGYTFTDYYINWVKQSHGKSLEWIGDISPNIGGATYNPKFKGKAILTVDKSARTAYMELRSLTSEDSAVYCCTRGGSSYPYFYAMDYWGQGTSVTVSS
VL: DIVMSQSPSSLAVSVGEKVTMSCKSSQSLLYSSNQKKYLAWYQQKPGQSPKLLIYWASTRESGVPDRFTGSGSGTDFTLTISSVKAEDLAVYYCQQFYSYPYTFGGGTKLEINR
notes: also called mADP13; mouse ADP13
In the case of B1, the “OD 450nm” value in test [1] came to 2.64 OD450nm. Further, in test [2], the “OD 450nm” value turned out to be 0.12 OD450nm and the binding result is recorded as “no binding (tested: 1 µg/ml)”. The same molecule came in with an MFI in test [3] of 21.1 MFI. Further, the MFI in test [4] came out at 62.2 MFI. In test [5], the koff was 4.6e-05 s⁻¹ and the on-rate (kon) worked out at 35400 M⁻¹ s⁻¹.

B2: ADP3 (antibody, IgG1, V domains shown)
VH: EVKLEESGGGLVQPGGSMKLSCAASGFTFSDAWMDWVRQSPEKGLEWVAEIRGKVNNLATYYVESVKGRFTISRDDSKSSVYLQMNSLRAEDTGIYYCLGRYDATYAMDYWGQGTSVTVSS
VL: DVVMTQTPLSLPVSLGDQASISCRSSQSLVHSDGNTYLHWYLQKPGQSPKLLIYKLSNRFSGVPDRFSGSGSGTDFTLKISRVEAEDLGVYFCSQSTHVPWTFGGGTKLEIK
On to B2, for which the “OD 450nm” value in test [1] turned out to be 2.31 OD450nm; in test [2], 0.16 OD450nm. For the same molecule, the MFI came out at 96.5 MFI in test [3] and 86.9 MFI in test [4]. In addition, the off-rate constant (koff) in test [5] stood at 0.000634 s⁻¹. For the same molecule, the kon in test [5] came to 34700 M⁻¹ s⁻¹.

B3: ADP2 (antibody, V domains shown)
VH: EVKLVESGGGLVQPGGSLSLSCAASGFSFPDYYMSWVRQPPGKALEWLGFIRDSANGYTTEYIASVKGRFTFSRDNSQSILYLQMNALRAEDSATYYCARYSRYYGMDYWGQGTSVTVSS
VL: SIVMTQTPKILLVSAGDRVTITCKASQTVNYDVAWYQQKPGQSPKPVIYFASNRYTGVPDRFTGSGFGTDFTFTISTVQAEDLAVYFCQQDYSAPWTFGGGTKLEIK
notes: also called mADP2; mouse ADP2
With B3, the “OD 450nm” value in test [1] was determined as 2.76 OD450nm. In addition, in test [2], the “OD 450nm” value amounted to 0.14 OD450nm and the binding result is “no binding (tested: 1 µg/ml)”. The MFI in test [3] worked out at 156 MFI. The same molecule showed an MFI in test [4] of 158 MFI. For the same molecule, in test [5], the koff amounted to 0.000299 s⁻¹ and the kon came to 89500 M⁻¹ s⁻¹.
